Publication PMC4448153

Target: T1, RamB-His (Corynebacterium glutamicum ATCC 13032?) (UniProt Q8NTD8)
T1 sequence: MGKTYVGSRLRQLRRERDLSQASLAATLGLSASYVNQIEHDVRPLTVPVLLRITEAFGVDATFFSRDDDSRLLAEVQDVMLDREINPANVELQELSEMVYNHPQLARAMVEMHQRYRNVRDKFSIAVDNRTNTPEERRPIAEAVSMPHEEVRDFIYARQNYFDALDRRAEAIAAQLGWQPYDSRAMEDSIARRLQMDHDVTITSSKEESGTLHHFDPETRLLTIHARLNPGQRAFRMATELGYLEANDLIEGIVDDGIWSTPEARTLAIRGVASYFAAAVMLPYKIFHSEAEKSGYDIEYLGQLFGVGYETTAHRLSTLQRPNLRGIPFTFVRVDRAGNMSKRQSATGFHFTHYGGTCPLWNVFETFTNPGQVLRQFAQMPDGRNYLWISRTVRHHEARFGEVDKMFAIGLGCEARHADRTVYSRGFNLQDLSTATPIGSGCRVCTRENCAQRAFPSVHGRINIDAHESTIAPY
Experiment: EMSA
Conditions: EMSA: 100 mM Tris/HCl pH 7.5, 20% glycerol, 100 mM KCl, 20 mM MgCl2, 1 mM EDTA, 30 min room temperature, DNA 5-61 nM; pull-down bead equilibration: 20 mM …

| Sequence | binding |
| --- | --- |
| CCCGATGTGGGTAGTGGCAGAATTTGCCGAACGATAGCCCAGAGTTCATAAGTTGTTAACCAAATTAGCCTGAGTTAGTCATTTCAAGGTCTTAGGTTTTTAAGTCGTGAGCAATCCGGAGGGAAACCG (double strand) [RcFc] | binds |
| CGTCTAGATAAGACCTTGAAATGACTAACTCAGGCTAATTTGGTTAACAACTTATGAACTCTGGGCTATCGTTCGGCAAATTCTGCCACTACCCACATCTCACTCGTAACATTTGGAGACTCTAATCACAAAAATCGGCAATTTTCGACCCCTGCGGAACGAAAATCACCGATTCTTATTATTCTCACAGGTTTTTAGCAAGTCTCTTTTTTACTCGAGGGG (double strand) [RF4] | binds more weakly |
| CGTCTAGATGCGGACTGCTGGGAAGATGCACCTTCAGCAACGAGCTGACCGGTAACACCGGAAAGGCCCTCAATGGATGCAGCATCGGAAGAACCGGTGGAAGCTGCAGATGAGGAGGTGGAATCAGACTCATTGGAGTCGGAGCAAGCTACAAGAGCGAAGGAGCCTGCAGTAACTGCGCCCACAAGGGCGATGGAGCGCTTAAGAGTGAGGTTCACGGGGAAGCCTTTCCGGTTTAAGTGAAGACATCGTCTGAGCAGATCCTGTAGGCGGGCCTCGAGGGG (double strand) [R3F0] | no binding |
